Measurements taken from article PMC3274541, “The Inherited Blindness Protein AIPL1 Regulates the Ubiquitin-Like FAT10 Pathway” (PLoS ONE, 2012).

T1: Myc-AIPL1 (aryl hydrocarbon receptor interacting protein-like 1), wild type (UniProt Q9NZN9 1-384)
T1 construct: also called pCMV-Tag3C-AIPL1; WT AIPL1; source: SK-N-SH, transfected, in lysate
T1 sequence (looked up): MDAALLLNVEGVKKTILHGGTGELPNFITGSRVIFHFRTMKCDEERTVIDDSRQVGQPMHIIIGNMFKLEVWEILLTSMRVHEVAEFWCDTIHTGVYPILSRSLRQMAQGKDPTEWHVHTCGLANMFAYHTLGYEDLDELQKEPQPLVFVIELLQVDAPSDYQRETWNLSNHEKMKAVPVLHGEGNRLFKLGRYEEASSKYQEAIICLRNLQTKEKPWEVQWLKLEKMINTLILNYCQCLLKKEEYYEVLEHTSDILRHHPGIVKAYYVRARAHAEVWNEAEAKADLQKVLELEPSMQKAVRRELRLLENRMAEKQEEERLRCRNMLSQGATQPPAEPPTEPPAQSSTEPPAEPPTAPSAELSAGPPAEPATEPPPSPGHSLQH

B1: NUB1-FLAG (NEDD8 ultimate buster-1) (natural protein)
chain: not shown
notes: NEDD8 ultimate buster-1 (NUB1), the shorter splice variant that lacks 14 amino acids in the second UBA domain of NUB1L; also called NUB1-p3XFLAG-CMV; source: SK-N-SH, transfected, in lysate
B2: HA-FAT10 (natural protein, UniProt O15205 1-165, looked up)
chain: MAPNASCLCVHVRSEEWDLMTFDANPYDSVKKIKEHVRSKTKVPVQDQVLLLGSKILKPRRSLSSYGIDKEKTIHLTLKVVKPSDEELPLFLVESGDEAKRHLLQVRRSSSVAQVKAMIETKTGIIPETQIVTCNGKRLEDGKMMADYGIRKGNLLFLACYCIGG
notes: ubiquitin-like modifier FAT10; also called free FAT10; monomeric FAT10; source: SK-N-SH, transfected, in lysate

Assays:
Test in all cases: co-IP; SK-N-SH cells co-transfected; lysed in DM buffer (1% n-dodecyl-β-D-maltoside, 10 mM EDTA, protease inhibitors in PBS); 2 µl antibody 2 h at 4°C, Protein G Sepharose overnight at 4°C, 5 washes; western blot; with or without 50 µM MG132 for 4 h
Settings in all cases: partners not purified
HA-FAT10 = target: B2
[1] = target: B1
[2] = target: T1, Myc-AIPL1 (aryl hydrocarbon receptor …)

| Binder | fold increase of the co-precipitate with MG132 over untreated cells (HA-FAT10) | fold increase of the co-precipitate with proteasome inhibitor over untreated cells [1] | fold increase of the co-precipitate with proteasome inhibitor over untreated cells [2] |
| --- | --- | --- | --- |
| B1 | ~5 fold |  |  |
| B2 |  | ~2 fold | ~5 fold |
